This note sets out measurements from patent publication US20200268795A1, “INTERFERON-GAMMA ATTENUATES ANTI-TUMOR IMMUNE RESPONSE TO CHECKPOINT BLOCKADE” (The Regents of the University of California, priority 2017, published 2020).

Test [1] relates to peripheral blood mononuclear cells from a melanoma patient. The test is described as follows: Patient PBMC stimulated in vitro with IFN-γ, apoptosis of CD8+ T cells. It is filed as cell-based, human. Particulars: different concentrations of IFN-γ; FIG. 5D. The text has this: It has been shown that T cell homeostasis can be achieved by down-modulation of antigen specific T cell receptor (TCR) signaling (A. M. Gallegos et al., Nature immunology 17, 379-386 (2016)). To investigate whether combination treatment eliminated different T cell clones depended on the strength of TCR binding to cognate cancer epitope, we gated on CD8 subsets and investigated Spas-1hi versus Spas-11o CD8+ T cell clones (FIG. 12C). […] Finally, peripheral blood mononuclear cells from a melanoma patient that received nivolumab immunotherapy were isolated and cultured in vitro with different concentrations of IFN-γ stimulation.
Splenocytes were harvested from TRAMP-C2 bearing C57BL/6j mice on day 50 and T cells were purified by magnetic beads according to the manufacturer's protocol (Miltenyi Biotec Cat 130-095-130). Cells were checked for over 90% purity. Purified T cells were suspend in DMEM (UCSF cell culture core) +10% fetal bovine serum (Lonza Cat 14-501F) +1% penicillin/streptomycin (UCSF cell culture core)+murine 20 IU IL-2 (Peprotech Cat 212-12), and seeded in 96 wells at 2×10^5 cells per well. Recombinant murine IFN-γ (Peprotech Cat 212-12) was added into the wells at indicated concentrations. Cells were cultured for 12-72 hours and analyzed by flow cytometry. […] Cells were harvested and analyzed by flow cytometry 72 hours after incubation.

Test [2] relates to T cells purified from TRAMP-C2 tumor bearing mice. The test is described as follows: In vitro T cell cultures stimulated with recombinant IFN-γ, active Caspase-3. It is filed as cell-based. Particulars: 72 hours after IFN-γ stimulation; FIG. 5B. The method, then:
We hypothesized that the loss of Spas-1 specific CD8+ T cells may be related to increased IFN-γ signaling. […] To further evaluate the effects of IFN-γ on antigen specific T cells, T cells were purified from spleens of tumor-bearing mice and stimulated with different concentrations of recombinant IFN-γ in vitro (FIG. 5A). 72 hours after the stimulation, the level of active Caspase-3 expression was examined among T cells subsets, including naïvee T cells (CD45+CD8+CD44-CD62L+), antigen specific T cells (CD45+CD8+Spas-1), and effector T cells (CD45+CD8+CD44+CD62L-). Activated effector T cells and antigen specific T cells were more susceptible to IFN-γ induced active Caspase-3 expression compared to naïvee T cells (FIG. 5B; 2297.33±305.84 versus 2281.67±305.89 versus 723±17.54; P<0.001).
Splenocytes were harvested from TRAMP-C2 bearing C57BL/6j mice on day 50 and T cells were purified by magnetic beads according to the manufacturer's protocol (Miltenyi Biotec Cat 130-095-130). Cells were checked for over 90% purity. Purified T cells were suspend in DMEM (UCSF cell culture core) +10% fetal bovine serum (Lonza Cat 14-501F) +1% penicillin/streptomycin (UCSF cell culture core)+murine 20 IU IL-2 (Peprotech Cat 212-12), and seeded in 96 wells at 2×10^5 cells per well. Recombinant murine IFN-γ (Peprotech Cat 212-12) was added into the wells at indicated concentrations. Cells were cultured for 12-72 hours and analyzed by flow cytometry. For the patient sample, peripheral blood mononuclear cells (PBMCs) were isolated by Ficoll (Sigma Cat F4375) and PBMCs were seeded in 96 wells at 2×10^5 cells per well supplemented with 20 IU human IL-2 (Peprotech Cat 200-02). Recombinant human IFN-γ (Peprotech Cat 212-12) was added to the wells. Cells were harvested and analyzed by flow cytometry 72 hours after incubation.
The flow cytometry protocols were previously described (Sckisel et al., 2015). […] Flow cytometry was performed on Fortessa X20 Dual, and data analyzed by FlowJo software (TreeStar). […]

On to “IFN-γ: Recombinant human IFN-γ (Peprotech) added to patient PBMCs”, for which the “apoptosis (Annexin V) in CD8+ T cells” value in test [1] was “gradual increase in apoptosis”.

B1: recombinant IFN-γ: Recombinant murine IFN-γ (Peprotech) (protein, UniProt P01580 23-155, looked up)
Interferon gamma: HGTVIESLESLNNYFNSSGIDVEEKSLFLDIWRNWQKDGDMKILQSQIISFYLRLFEVLKDNQAISNNISVIESHLITTFFSNSKAKKDAFMSIAKFEVNNPQVQRQAFNELIRVVHQLLPESSLRKRKRSRC
As for B1, in test [2], the “active Caspase-3 expression, antigen specific T cells (CD45+CD8+Spas-1)” value is on record as 2281.67±305.89; the “active Caspase-3 expression, effector T cells (CD45+CD8+CD44+CD62L-)” value amounted to 2297.33±305.84; the “active Caspase-3 expression, naïve T cells (CD45+CD8+CD44-CD62L+)” value is 723±17.54.
